The supplement of paper PMC9170038

Columns and labels:
MS2 coat protein [1] = assay: apparent KD of MS2 coat protein, switch ON state; designed switch direction (-1 OFF switch, 1 ON switch): 1; higher = weaker reporter binding; details: FMN input: 0 or 200 uM; Eterna round: R93 (includes R88 designs)
Procedure, shortened: (§1)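 In 100 mM Tris-HCl pH 7.5 with 80 mM KCl and 4 mM MgCl2, and without or with constant ligand, SNAP-549-labelled MS2 coat protein was titrated in twofold steps from 0.7 or 1.5 nM to 3 µM. Per-step times went from 0.8–1.5 h down to 10–20 min. The RNA switches were transcribed on-chip from Illumina sequencing clusters, and apparent KD is the per-design median of normalised cluster binding-curve fits.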

MS2 coat protein [2] = assay: apparent KD of MS2 coat protein, switch OFF state (with FMN for OFF switches, without FMN for ON switches); designed switch direction (-1 OFF switch, 1 ON switch): 1; higher = weaker reporter binding; details: FMN input: 0 or 200 uM; Eterna round: R93 (includes R88 designs)
Procedure, shortened: as §1

Row | Sequence | apparent KD of MS2 coat protein (MS2 coat protein [1]) | apparent KD of MS2 coat protein (MS2 coat protein [2])
1 | AAAAAACAUGAGGAUCACCCAUGUAAAAAUAUGGGAGGAUAUUCAAACACGAAAGUGAAAGAAGAAGGCCUAAAAA [SS! MT 18] | 15 nM | 139 nM
2 | AAAAAACAUGAGGAUCACCCAUGUAAAUCUCAUGUAGGAUAUACAAAAAAAAAAAAAAAAGUAGAAGGACAAAAAA [Omei A variation 5] | 125 nM | 75.2 nM
3 | AAAAAACAUGAGGAUCACCCAUGUCAAAAGACGUGAGGAUAUGUACAGACUUCGGUCUGUACAGAAGGCACGAAAA [SS1 - 1037] | 12.9 nM | 20.1 nM
4 | AAAAAACAUGAGGAUCACCCAUGUCCUCGGACGUGAGGAUAUGUACAGACUUCGGUCUGUACAGAAGGCACGAAAA [SS1 - 1036] | 503 nM | 319 nM
5 | AAAAAACAUGAGGAUCACCCAUGUGAAAAAAACGCAGGAUAUCCCUUUUUUAAAUGGGAGGGAGAAGGGUGAAAAA [Nob's Hobby 14 - Jieux - Same State 1] | 36.3 nM | 45.9 nM
6 | AAAAAACAUGAGGAUCACCCAUGUGCAAAAUUCGCAGGAUAUCCCUUUUUUAAAUGGGAGGGAGAAGGGUGUAAAA [Nob's Hobby 18 - Jieux - Same State 1] | 27.1 nM | 47.4 nM
7 | AAAAAACAUGAGGAUCACCCAUGUGCAAAAUUCGCAGGAUAUUUUUCUUUUAAAUGAGAGGGAGAAGGGUGUAAAA [Nob's Hobby 23 - Jieux - Same State 1] | 21.6 nM | 22.1 nM
8 | AAAAAACAUGAGGAUCACCCAUGUGCAAAAUUCGCAGGAUAUUUUUUUUUUAAAUGAGAGGGAGAAGGGUGUAAAA [Nob's Hobby 22 - Jieux - Same State 1] | 27.4 nM | 33 nM
9 | AAAAAAUAAAAAAAGGAUAUAAAUGCUAGAACAUGAGGAUCACCCAUGUACUAGCAAAAAAUAAAAAAGAAGGAAAAAUAAAAAA [SS2: MS2 18] | 15.6 nM | 14.8 nM
10 | AAAAAGGAGAGAGAGGAUAUCCAAAGGAAAACAUGAGGAUCACCCAUGUAAAAGGUAGGAAAUUGGGAGAAGGCUCAAGAGAGAG [salish99-ss2-107] | 17.6 nM | 36.5 nM
11 | AAAACACAUGAGGAUCACCCAUGUAAAAACAUGAGAGGAUAUGCAUGAAAAACAUGCUAUGCAGAAGGCUCAUGUG [SS1 - 1] | 20.9 nM | 27.2 nM
12 | AAAAGACAUGAGGAUCACCCAUGUAAAAACGUAGGAGGAUAUGUCUGGAAAACAUGCUGGACAGAAGGCCUGUGUC [SS1 - 29] | 17.6 nM | 25.2 nM
13 | AAAAGACAUGAGGAUCACCCAUGUAAAGACAUAGGAGGAUAUGUCGUGAAAAAAGACUUGGCAGAAGGCCUUUGUC [SS1 - 46] | 21 nM | 25.6 nM
14 | AAAAGACAUGAGGAUCACCCAUGUCAAAACGUGGGAGGAUAUGCAUGGAAAACAUGCUGUGCAGAAGGCCCGUGUC [SS1 - 21] | 27.5 nM | 46.4 nM
15 | AAAAGGCUAAACUAGGAUAUGGGUGUCUAAACAUGAGGAUCACCCAUGUGAUGGCAAAACAAAGCUCAGAAGGAGUGGUAGCCCA [Riquceri] | 12.4 nM | 56.7 nM
16 | AAAAGGGCGACACAGGAUAUGUUGACUCUAACAUGAGGAUCACCCAUGUGCGUUUAGGGUCGUGCGCAGAAGGGUGUAGCUCGGA [Orvele] | 12.9 nM | 24.1 nM
17 | AAAAUAAAAUAAAAGGAUAUAAAAUAAAAUACAUGAGGAUCACCCAUGUAUAAAAUAAAAAAAUAAAAGAAGGAAUAAAAAUAAA [SS2 504: MS2 4] | 16.4 nM | 11.2 nM
18 | AAAAUACAUGAGGAUCACCCAUGUCCGACAAAUCAAGGAUAUGAUAGCCAAACCAGGCUGUUAGAAGGUGAAAGAA [Esesrien] | 260 nM | 151 nM
19 | AAACCACAUGAGGAUCACCCAUGUGAAAUACACAUAGGAUAUGCGAAAAGAAACAAAGAAGCAGAAGGGUGAAAAA [75%, Ex sub1, 17] | 35.4 nM | 41.3 nM
20 | AAAGACAUGGUGCAGGAUAUAUUAAUAGUCACAUGAGGAUCACCCAUGUUCAUAUAUAUGAACGAGUAGAAGGGCGAUGAAAAAA [SameState2 Malc#6] | 98 nM | 90.8 nM
21 | AAAUAAAAAAAAAAGGAUAUUCAUGUAAAAACAUGAGGAUCACCCAUGUAAAAAAAUAAAAAUAAAAAGAAGGAAAAAUAAAAAA [SS2: 85 No MS2] | 77.1 nM | 164 nM
22 | AAAUAAAGGACUAAGGAUAUAUCGCAUGACACAUGAGGAUCACCCAUGUGGUAACACAGAGGGUGAUAGAAGGUAGUCCACAAACA [Pariah 6 (MS2 Riboswitches - Same State 2)] | 42.8 nM | 287 nM

Row | Sequence | apparent KD of MS2 coat protein (MS2 coat protein [1]) | apparent KD of MS2 coat protein (MS2 coat protein [2])
23 | AAAUAAAUGACUAAGGAUAUAUCGGAGAAAACAUGAGGAUCACCCAUGUAAUAAUAAAAAGGGUGAUAGAAGGUAGUCAACAAAC [Mod 1 of Pariah 4 by Hyphema in Round 1] | 37.3 nM | 63.6 nM
24 | AAAUAAAUGACUCAGGAUAUAUCAUAGAGUACAUGAGGAUCACCCAUGUUUUAAUAACAUGUUUGGUAGAAGGGAGUCAAUAAAU [LROPPY Same State 2 - v06_deltaG=1.99] | 25.8 nM | 127 nM
25 | AAAUAACAUGAGGAUCACCCAUGUUGCAGCGGUUGAGGAUAUGUGGGUGAAAAUAGCAUGGCAGAAGGCGAGUGUA [SameState1 Malc#26] | 71.3 nM | 71.9 nM
26 | AACAAUCUAUCUGAGGAUAUCAAAAAAAAAACAUGAGGAUCACCCAUGUCUAGGAAAACUAGAUAUGAGAAGGCAGAUAGAUUGA [SS1 - 593] | 7.93 nM | 49.6 nM
27 | AACAAUCUAUCUGAGGAUAUCAAGUCAAAGACAUGAGGAUCACCCAUGUGCAGGAAAACUGCACUUGAGAAGGCAGAUAGAUUGA [SS2: 1109] | 12.3 nM | 9.63 nM
28 | AACAAUCUAUCUGAGGAUAUCAUGUAAAAGACAUGAGGAUCACCCAUGUAGCAGGAAACUGCACAUGAGAAGGCAGAUAGAUUGA [SS2: 1124] | 15.9 nM | 19.6 nM
29 | AACAAUCUAUCUGAGGAUAUCAUUUCAAAGACAUGAGGAUCACCCAUGUCCAGGAAAACUGGAAAUGAGAAGGCAGAUAGAUUGA [SS2: 1106] | 11.7 nM | 9.31 nM
30 | AACAAUCUAUCUGAGGAUAUGUGUCGAAAGACAUGAGGAUCACCCAUGUAAAAACAUGGAAAGAUACAGAAGGCAGAUAGAUUGA [SS2: 1157] | 28.4 nM | 107 nM
31 | AACAUACAUGAGGAUCACCCAUGUUCCGGCAGGUCAGGAUAUGUAUCGAAAGAGUUAUAAACAGAAGGGACAUAAA [JR_SS001_Sub010] | 32.4 nM | 56.9 nM
32 | AACCGGGAGAAGCAGGAUAUUGCCUCUUCAACAUGAGGAUCACCCAUGUAAGUAAAUUGACGAUACAAGAAGGGCUGCUCCUUAC [Raatgees] | 30.5 nM | 74.3 nM
33 | AAGAAACAUGAGGAUCACCCAUGUAAAUAAAUCUCAGGAUAUCGUACAUGGAAGAUCUAACGAGAAGGGAGAAGAA [Pariah 1 (MS2 Riboswitches - Same State 1)] | 85.7 nM | 63.4 nM
34 | AAGAAACAUGAGGAUCACCCAUGUAAGAUAAACACAGGAUAUGCGAAAAUAAAUAAAUAAGCAGAAGGGUGAAGAA [Mat - Same State 1 - Tesla mod - 66] | 14.8 nM | 42.4 nM
35 | AAGAAACAUGAGGAUCACCCAUGUAGAAAUAUGGGAGGAUAUACAAGGACGAAAGUCAAGGUAGAAGGCCUAAGAA [Mat - Same State 1 - Meechl mod - D132] | 20.7 nM | 112 nM
36 | AAGAAACAUGAGGAUCACCCAUGUCAAGAGAGACUAGGAUAUCUGAAUUAAUUAAAUUAAGGAGAAGGAGUGAAAA [71%, Same state of confusion2, 2] | 35.9 nM | 88.6 nM
37 | AAGAAACAUGAGGAUCACCCAUGUGGAAAUAUGGGAGGAUAUACAAGGACGUAAGUCAAGGUAGAAGGCCUAAGAA [Mat - Same State 1 - Meechl mod - D138] | 21.5 nM | 134 nM
38 | AAGAAAGUUUACGAGGAUAUGUUCCGCAUAACAUGAGGAUCACCCAUGUGAACAAGAAAGGCGACGCAGAAGGCGUGAGCAAAGA [Atanansori] | 26.1 nM | 403 nM
39 | AAGAGACAUGAGGAUCACCCAUGUAGGAUUAUGGGAGGAUAUACAAAGACGAGAGUCAGAGUAGAAGGCCUAGGAA [salish99-ss1-129(!)] | 24.5 nM | 65.1 nM
40 | AAGAUACAUGAGGAUCACCCAUGUCACCUCACACGAGGAUAUCUGUGCAGUACUCAGUACGGAGAAGGCGUGGAAA [Mat - Same State 1 - Hyphema mod - D98] | 25 nM | 56.4 nM
41 | AAUACACAUGAGGAUCACCCAUGUAGAAAGAAGGCAGGAUAUCAGAUCCACAUGUGAUAAUGAGAAGGGCCAAUAA [SS 1 Tesla 9] | 21.1 nM | 102 nM
42 | AAUAGACAUGAGGAUCACCCAUGUAGAAUUAUGGGAGGAUAUACAAAGACGAGAGUCAGAGUAGAAGGCCUAGGAA [salish99-ss1-148] | 23.6 nM | 71.5 nM
43 | AAUAGACAUGAGGAUCACCCAUGUAGAAUUAUGGGAGGAUAUACAAAGACGAGAGUCAGAGUAGAAGGCCUAGGAU [salish99-ss1-149] | 24.7 nM | 51.8 nM
